Measurements published in PMC3785238 (Cell, 2013).

B1: Homer1c: constitutively expressed cross-linking Homer protein (protein)
chain: MGEQPIFSTRAHVFQIDPNTKKNWVPTSKHAVTVSYFYDSTRNVYRIISLDGSKAIINSTITPNMTFTKTSQKFGQWADSRANTVYGLGFSSEHHLSKFAEKFQEFKEAARLAKEKSQEKMELTSTPSQESAGGDLQSPLTPESINGTDDERTPDVTQNSEPRAEPAQNALPFSHSAGDRTQGLSHASSAISKHWEAELATLKGNNAKLTAALLESTANVKQWKQQLAAYQEEAERLHKRVTELECVSSQANAVHSHKTELSQTVQELEETLKVKEEEIERLKQEIDNARELQEQRDSLTQKLQEVEIRNKDLEGQLSELEQRLEKSQSEQDAFRSNLKTLLEILDGKIFELTELRDNLAKLLECS
modifications: left off: tag not named ('Tagged transgenes'), end not stated, state not stated
B2: BDNF: TrkB receptor ligand (protein, UniProt P21237 19-249, looked up)
Neurotrophic factor BDNF …: APMKEVNVHGQGNLAYPGVRTHGTLESVNGPRAGSRGLTTTSLADTFEHVIEELLDEDQKVRPNEENHKDADLYTSRVMLSSQVPLEPPLLFLLEEYKNYLDAANMSMRVRRHSDPARRGELSVCDSISEWVTAADKKTAVDMSGGTVTVLEKVPVSKGQLKQYFYETKCNPMGYTKEGCRGIDKRHWNSQCRTTQSYVRALTMDSKKRIGWRFIRIDTSCVCTLTIKRGR

How the values were obtained:
Pin1-mGluR5 binding = experiment: Co-immunoprecipitation of Pin1 and mGluR5 in HEK293T cells; type: cell-based; conditions: no other Homer
mGluR5 = mGluR5 phosphorylation in cultured striatal neurons; type: cell-based; conditions: primary striatal cultures
mGluR5-SIC = type: cell-based, mouse

Molecule | effect of co-expression on Pin1-mGluR5 binding (Pin1-mGluR5 binding) | mGluR5 phosphorylation in striatal cultures (mGluR5) | mGluR5-SIC amplitude or duration, WT neurons (mGluR5-SIC; BDNF 10 ng/ml, 10 min, WT neurons, n = 14, 40-min monitoring) | mGluR5-SIC potentiation, WT neurons pretreated with KCl (mGluR5-SIC; BDNF 10 ng/ml, 10 min, after KCl pretreatment, n = 6, p < 0.05) | mGluR5-SIC potentiation, Grm5AA/AA neurons (mGluR5-SIC; BDNF 10 ng/ml, 10 min, Grm5AA/AA n = 8, or Homer1a-expressing n = 8) | mGluR5-SIC potentiation, Homer1aW24A mutant or GFP expressing WT neurons (mGluR5-SIC; BDNF 10 ng/ml, 10 min, Homer1aW24A n = 6, GFP n = 5) | mGluR5-SIC potentiation, Homer1c expressing Homer1−/− neurons (mGluR5-SIC; BDNF 10 ng/ml, 10 min, Homer1c viral transgene, n = 8) | mGluR5-SIC potentiation, Homer1-deficient neurons (mGluR5-SIC; BDNF 10 ng/ml, 10 min, Homer1−/−Homer2−/−Homer3−/− (n = 14) or Homer1−/− (n = 11) neurons, charge transfer versus baseline, p < 0.001) | mGluR5-SIC potentiation, Pin1−/− neurons (mGluR5-SIC; BDNF 10 ng/ml, 10 min, Pin1−/− (n = 6) or Homer1a-expressing Pin1−/− (n = 4)) | mGluR5-SIC potentiation, Homer1a expressing WT neurons (mGluR5-SIC; BDNF 10 ng/ml, 10 min, n = 6, p < 0.001) | mGluR5-SIC potentiation, Grm5R/R neurons (mGluR5-SIC; BDNF 10 ng/ml, 10 min, n = 7, p < 0.001, no KCl pretreatment or Homer1a expression needed) | mGluR5-SIC potentiation, Homer1a−/− neurons pretreated with KCl (mGluR5-SIC; BDNF after KCl pretreatment, n = 3)
B1 | reduced Pin1-mGluR5 binding |  |  |  |  |  |  |  |  |  |  | 
B2 |  | increases mGluR5 phosphorylation | did not alter the amplitude or duration | ~ 1.5 fold | not potentiated | absent | blocked BDNF potentiation | > 2 fold | not potentiated | potentiated | potentiated | not in Homer1a^−/− pre-treated with KCl
